Data taken from the supplement of paper PMC10126150.
± gives the standard deviation of the averaged measurements.

System: ATP
Assay: switch fluorescence ratio, 500 uM ATP over buffer (Cy3 cluster intensity, sum of 5 cycles each) (fold (ratio)); higher = stronger signal-on switching upon ATP binding; sequences stand for … in TCGTCGGCAGCGTCAGATGTGTATAAGAGACAGTTTTTTTTTTTTTTTTTTTTTTTTT…TC
Details: aptamer strand: ATP DNA aptamer (quencher-CACCTGGGGGAGTATTGCGGAGGAAGG + anchor), 100 nM annealed; ATP concentration: 500 uM
Outline: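 Imaging in selection buffer was followed by imaging after 15 min with 500 uM ATP at 22 °C, for Cy3-labelled switching-strand clusters annealed to 100 nM quencher-labelled ATP aptamer on a modified Illumina MiSeq flow-cell. Five of these buffer/ATP cycles ran, separated by NaOH stripping and re-annealing. The fluorescence ratio per cluster is summed target-cycle over summed buffer-cycle Cy3 intensity, averaged per switch-domain sequence; clusters outside 100-1000 RFU were removed.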
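Also: ATP exposure 15 min at 22 °C before imaging.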

Sequence | switch fluorescence ratio
AAGGGAACAA | 0.999 ± 0.048
AAGGGAAGTG | 0.982 ± 0.069
AAGGGAATTT | 1.17 ± 0.36
AAGGGAGGCG | 1.14 ± 0.2
AAGGGAGGGG | 0.987 ± 0.028
AAGGGAGGTT | 1 ± 0.027
AAGGGATGCT | 1 ± 0.011
AAGGGCCGGG | 0.967 ± 0.029
AAGGGCCTGC | 0.9723 ± 0.0039
AAGGGCGTCA | 1.007 ± 0.0022
AAGGGCTTCA | 1.031 ± 0.0074
AAGGGGAAGT | 0.987 ± 0.038
AAGGGGACAC | 1.02 ± 0.014
AAGGGGAGTT | 0.998 ± 0.028
AAGGGGCGAT | 0.98751 ± 0.00098
AAGGGGCTTT | 1.01 ± 0.025
AAGGGGGACT | 1.04 ± 0.039
AAGGGGGCTA | 0.974 ± 0.027
AAGGGGGTGT | 0.965 ± 0.026
AAGGGGTAGG | 0.986 ± 0.036
AAGGGGTAGT | 0.997 ± 0.025
AAGGGGTCGT | 1 ± 0.025
AAGGGGTGAA | 0.989 ± 0.017
AAGGGGTGGG | 1.02 ± 0.032
AAGGGGTGTG | 0.998 ± 0.013

Sequence | switch fluorescence ratio
AAGGGTAAGC | 0.981 ± 0.029
AAGGGTATGC | 1 ± 0.035
AAGGGTCGAT | 0.968 ± 0.016
AAGGGTTAGG | 1.03 ± 0.023
AAGGTAATTT | 1.01 ± 0.03
AAGGTACAAG | 1.06 ± 0.047
AAGGTAGAAA | 1.03 ± 0.016
AAGGTAGAAT | 0.986 ± 0.013
AAGGTAGGGG | 0.986 ± 0.018
AAGGTATTAG | 0.9926 ± 0.0055
AAGGTCATTA | 0.97235 ± 0.00041
AAGGTCCTCT | 1 ± 0.004
AAGGTGAAGG | 1.02 ± 0.035
AAGGTGAGGT | 1.038 ± 0.006
AAGGTGTTGT | 1.04 ± 0.066
AAGGTTCGAA | 1.023 ± 0.0033
AAGGTTGAAC | 0.979 ± 0.011
AAGGTTGACC | 1.01 ± 0.021
AAGGTTGGGT | 0.984 ± 0.031
AAGGTTGGTG | 1 ± 0.034
AAGGTTTGCC | 0.965 ± 0.028
AAGTAAGCAG | 0.9636 ± 0.0011
AAGTAATGCG | 1.04 ± 0.034
AAGTAATTGT | 1.01 ± 0.015
AAGTACAAGG | 1.16 ± 0.1

Sequence | switch fluorescence ratio
AAGTACGTTA | 1.25 ± 0.029
AAGTAGAATT | 1.015 ± 0.0045
AAGTAGAGTG | 0.9834 ± 0.0013
AAGTAGGAAA | 0.999 ± 0.013
AAGTAGTTCG | 0.9823 ± 0.0037
AAGTAGTTTC | 1.01 ± 0.018
AAGTATAATG | 1.02 ± 0.054
AAGTATACTT | 0.986 ± 0.0049
AAGTATAGGT | 1.03 ± 0.017
AAGTATTAGA | 0.964 ± 0.011
AAGTCATTTA | 0.9881 ± 0.0096
AAGTCCCCGG | 1.18 ± 0.015
AAGTCCTGGA | 1.07 ± 0.13
AAGTCCTTCT | 1.07 ± 0.036
AAGTCGCATT | 1.03 ± 0.014
AAGTCGGTCT | 1.05 ± 0.1
AAGTCTACG | 1.04 ± 0.03
AAGTCTATGG | 1 ± 0.054
AAGTCTTAAG | 1.04 ± 0.013
AAGTGACAGC | 1 ± 0.031
AAGTGAGAAA | 0.983 ± 0.066
AAGTGAGTGC | 1 ± 0.059
AAGTGCCTGC | 1.015 ± 0.0056
AAGTGCTGGG | 0.993 ± 0.034
AAGTGGATAT | 0.999 ± 0.024

Sequence | switch fluorescence ratio
AAGTGGCTGG | 0.991 ± 0.038
AAGTGGTCTG | 0.983 ± 0.017
AAGTGGTTGG | 0.984 ± 0.024
AAGTTAAAGG | 1.03 ± 0.077
AAGTTAATCT | 0.988 ± 0.019
AAGTTACGTT | 1.04 ± 0.081
AAGTTACTAG | 1.07 ± 0.014
AAGTTACTGT | 1.126 ± 0.006
AAGTTAGACC | 1.026 ± 0.0041
AAGTTATGAG | 1.01 ± 0.046
AAGTTATGTT | 1.02 ± 0.028
AAGTTATTTT | 1.01 ± 0.015
AAGTTCATGG | 0.973 ± 0.012
AAGTTCCTTC | 1.05 ± 0.036
AAGTTCTTTA | 1.02 ± 0.022
AAGTTGAGTA | 0.986 ± 0.025
AAGTTGAGTT | 1.007 ± 0.0017
AAGTTGGGAA | 1.02 ± 0.042
AAGTTGGGAT | 0.972 ± 0.037
AAGTTGGGCC | 0.955 ± 0.044
AAGTTGTACG | 0.9989 ± 0.0032
AAGTTGTTCT | 0.997 ± 0.014
AAGTTTAGAA | 1 ± 0.012
AAGTTTAGTG | 0.976 ± 0.019
AAGTTTATTC | 0.967 ± 0.017

Sequence | switch fluorescence ratio
AAGTTTGAAG | 0.974 ± 0.01
AAGTTTGCAT | 0.978 ± 0.021
AAGTTTGTT | 0.983 ± 0.027
AAGTTTTAGG | 0.988 ± 0.027
AAGTTTTGAC | 1 ± 0.014
AAGTTTTGGA | 1.02 ± 0.025
AAGTTTTGTG | 0.9869 ± 0.0074
AAGTTTTTAT | 0.971 ± 0.019
AAGTTTTTTA | 0.993 ± 0.023
AAGTTTTTTG | 0.989 ± 0.013
AATAAAAAAC | 1.05 ± 0.078
AATAAAAGAG | 0.962 ± 0.018
AATAAATGCT | 0.99 ± 0.036
AATAAATTTA | 1 ± 0.016
AATAACGAAG | 1.04 ± 0.045
AATAAGAATA | 1 ± 0.037
AATAAGAGAC | 1.01 ± 0.043
AATAAGGCCG | 0.996 ± 0.076
AATAAGGGTG | 1.09 ± 0.14
AATAAGTGTT | 0.9792 ± 0.008
AATAATAGGC | 0.97 ± 0.012
AATAATCAGT | 1.05 ± 0.033
AATAATTTAA | 0.995 ± 0.021
AATACAATGG | 1.04 ± 0.011
AATACAGAGA | 1.01 ± 0.055

Sequence | switch fluorescence ratio
AATACATCGG | 0.999 ± 0.022
AATACATGTA | 0.984 ± 0.013
AATACGGGAG | 0.995 ± 0.017
AATACGGGGA | 1.02 ± 0.024
AATACGGGGT | 1.03 ± 0.033
AATACGTAGT | 1.04 ± 0.078
AATACGTTAG | 1.01 ± 0.027
AATAGACCTT | 1.13 ± 0.17
AATAGACTT | 0.999 ± 0.013
AATAGAGGTT | 0.965 ± 0.02
AATAGCAACT | 1.06 ± 0.029
AATAGCCGGG | 0.97 ± 0.066
AATAGGGGCA | 0.949 ± 0.017
AATAGGGGGA | 1.01 ± 0.034
AATAGGGGGG | 1.01 ± 0.024
AATAGGGTGT | 1.07 ± 0.046
AATATAGGCG | 1.04 ± 0.073
AATATATCCG | 1.03 ± 0.02
AATATATGT | 1.02 ± 0.023
AATATCCTAT | 1.01 ± 0.03
AATATCGCGG | 1.0264 ± 0.001
AATATCGGCA | 0.982 ± 0.027
AATATCGGGA | 0.983 ± 0.038
AATATCTCTG | 1.02 ± 0.03
AATATGAATT | 1.01 ± 0.016

Sequence | switch fluorescence ratio
AATATGTGTA | 0.987 ± 0.018
AATATTAGGT | 0.995 ± 0.023
AATATTCCAT | 1.02 ± 0.045
AATATTTTGG | 1.013 ± 0.0037
AATCAGATCG | 0.962 ± 0.018
AATCAGGACA | 0.9959 ± 0.0076
AATCATATGG | 0.969 ± 0.057
AATCATATTT | 1.02 ± 0.018
AATCATTTTG | 1 ± 0.018
AATCCGGAAC | 1.92 ± 0.023
AATCCTAGTT | 1.01 ± 0.011
AATCGAGGAG | 0.957 ± 0.053
AATCGAGTGG | 0.969 ± 0.06
AATCGGAGCA | 1.349 ± 0.0071
AATCGGCCGG | 1.01 ± 0.053
AATCGGCTGG | 1.01 ± 0.011
AATCGGGACC | 0.9905 ± 0.002
AATCGGGCAA | 1.34 ± 0.03
AATCGGGGCG | 0.905 ± 0.016
AATCGTTAAA | 0.9812 ± 0.0069
AATCTACGCA | 1.44 ± 0.32
AATCTACTGA | 1.013 ± 0.01
AATCTATAAT | 1.007 ± 0.0018
AATCTTCATG | 0.997 ± 0.044
AATCTTCTGG | 0.98 ± 0.025

Sequence | switch fluorescence ratio
AATCTTGGGA | 0.977 ± 0.028
AATCTTGGGC | 0.9771 ± 0.0096
AATCTTGTTG | 0.998 ± 0.021
AATCTTTGCT | 1.011 ± 0.0063
AATCTTTGTG | 0.976 ± 0.033
AATGAAAGGT | 1.01 ± 0.022
AATGAACATG | 0.978 ± 0.037
AATGAAGGTC | 0.965 ± 0.079
AATGAAGTGT | 0.996 ± 0.012
AATGAATCGT | 1 ± 0.015
AATGAATTGG | 0.9691 ± 0.005
AATGACTCAT | 0.9808 ± 0.0049
AATGAGAGTT | 0.9909 ± 0.0011
AATGAGGGGG | 0.978 ± 0.05
AATGAGTCAA | 1 ± 0.021
AATGAGTGTG | 0.9805 ± 0.0029
AATGATAGTA | 1.006 ± 0.0034
AATGATATCA | 1.01 ± 0.025
AATGATCGAC | 0.975 ± 0.012
AATGATGCCT | 0.995 ± 0.036
AATGATGTAC | 1.05 ± 0.01
AATGCACTCG | 1.04 ± 0.05
AATGCAGATT | 1.031 ± 0.008
AATGCCAAGG | 1 ± 0.03
AATGCGCCAG | 1.03 ± 0.025
